According to publication PMC4004541, “PEG-Like Nanoprobes: Multimodal, Pharmacokinetically and Optically Tunable Nanomaterials” (PLoS ONE, 2014):

Legend:
[1] = Quantum yield of fluorochrome-bearing peptides and PN's; assay type: physicochemical; conditions: means±1 S.D.
From the text: (The p values showing significances are in Figure S2 in File S1). […] PEG attachment increased quantum yields in all cases, but as discussed below the magnitude of PEG generated improvement varied with the fluorochrome chosen. A mechanism for the PEG improvement of quantum yield is fluorochrome shielding, or the blocking of fluorochrome-fluorochrome interactions that result in quenching.
However, the magnitude of these benefits varied with the fluorochrome selected. […] Previous studies indicated PEGylated, fluorochrome-bearing peptides have absorption spectra in PBS similar to their unstacked absorption spectra in methanol. […] It appears that longer wavelength fluorochromes have stronger fluorochrome/fluorochrome stacking interactions, which result in more quenching, which is blocked by PEG and which gives rise to larger increases in quantum yield.

[2] = Probe size (volume) by FPLC calibrated with globular protein standards; assay type: physicochemical; conditions: for Volume FPLC, globular protein equivalent molecular volume: Superdex 200 10/300GL, 0.05 M sodium phosphate, 0.1 M NaCl (0.1% Tween, pH 7.2), 0.8 ml/min, calibrated with globular protein standards; for Volume FPLC Dia. (diameter): globular protein equivalent volume from FPLC converted to spherical diameter by formula (ref 15)
From the text: FPLC chromatograms are shown for PN’s bearing the IR-783 fluorochrome with PEG’s ranging from 2 to 40 kDa ( Figure 2A ). FPLC was calibrated with globular protein standards, and globular protein equivalent molecular volumes (in kDa) were obtained ( Table 1 , column 5). Next, these globular protein equivalent molecular volumes were converted to PN diameters in nm using the relationship: [drawing 1] where M is the molecular weight of a globular protein expressed in daltons. PN diameters ranged from 3.0 to 11.7 nm, which means PN’s can be smaller or larger than albumin (MW = 67 kDa; diameter = 5.4 nm, by the formula above). Thus Table 1 column 5 gives the PN volumes obtained from FPLC expressed in two ways: (i) as the molecular weight in kDa of globular proteins with equivalent volumes, permitting size comparison of PN’s to proteins, and, (ii) as spherical diameters (“Dia.”) in nm, permitting size comparisons of a PN to relative to other nanomaterials. We confirmed the sizes obtained with FPLC by measuring the size of PN(783)11.7 by dynamic light scattering (11.7 nm).
The mass spec of low molecular weight (MW) materials were obtained by MS-ESI Micromass (Waters) and high MW molecules were determined through MALDI-TOF analyses at the Tufts University Core Facility. RP-HPLC (Varian ProStar detector and delivery modules) employed an eluant A (0.1% TFA/water) and eluant B (0.1% TFA and 9.9% water in acetonitrile). Probe size (volume) was determined by FPLC using an ÄKTA Purifier 10 and SuperdexTM 200 10/300GL column (GE Healthcare) with a running buffer of 0.05 M sodium phosphate, 0.1 M NaCl (0.1% Tween, pH 7.2) and flow rate of 0.8 ml/min. Standards (GE Healthcare) were Ferritin, Ribonuclease A, Carbonic Anhydrase, and Conalbumin and Blue Dextran 2000. To obtain probe volumes, Mr (apparent molecular weight based on size exclusion retention) was plotted versus Kav. [drawing 7] , Vt = total volume, Ve = elution volume, Vo = void volume.
PN and peptide characterization: The mass spec of low molecular weights (MW) were obtained by MS-ESI Micromass (Waters) and high MW molecules were determined through MALDI-TOF analyses at the Tufts University Core Facility. RP-HPLC (Varian ProStar detector and delivery modules) employed an eluant A (0.1% TFA /water) and eluant B (0.1% TFA and 9.9% water in acetonitrile). […] Standards (GE Healthcare) were Ferritin, Ribonuclease A, Carbonic Anhydrase, and Conalbumin and Blue Dextran 2000. To obtain probe volumes, Mr (apparent molecular weight based on size exclusion retention) was plotted versus Kav. [picture] , Vt = total volume, Ve = elution volume, Vo = void volume.

[3] = tested on: HT-29 cells; test: Non-specific binding (NSB) to HT-29 cells by FACS; assay type: cell-based, human; conditions: 100 μL of nanoprobes (2 μM) added to 100 μl 2% FBS/DPBS, 30 min at 37 °C, means±1 S.D.
From the text: We next examined the non-specific binding (NSB) of PN’s to HT-29 cells based on the assumption that NSB minimization will correlate with a desirable minimization of post-IV injection retention. As noted above, after diagnostic drugs generate their added information, retention can only increase the risks of delayed toxicity. The attachment of PEG decreased the non-specific binding (NSB) to HT-29 cells, scored as the percent of cells above the cutoff for unstained cells seen with FACS ( Table 1 , column 7).
PN and peptide binding to cells (effect of PEGylation on NSB): HT-29, a human colon carcinoma cell line, was from the American Tissue Culture Collection and maintained according to their instructions. Cells were seeded on 24-well plates at 5X10^5 cells/well in culture medium (RPMI 1640 with 10% FBS) the day before the assay. The day of assay, medium was removed, wells rinsed twice with DPBS (+Ca, +Mg), and 100 μl of 2% FBS / DPBS (+Ca, +Mg) added. 100 μL of Nanoprobes (2 μM) in DPBS (+Ca, +Mg) was added to cells and incubated for 30min at 37 °C. (Probe concentrations were determined spectrophotometrically (783 nm, extinction coefficient of 314 471 cm^-1 M^-1 for IR-783; 497 nm, extinction coefficient of 68 000 cm^-1 M^-1 for Fluorescein; 545 nm, extinction coefficient of 150 000 cm^-1 M^-1 for Cy3). Cells were detached by Trypsin/EDTA and assayed for fluorescence by FACS (BD 7 laser LSR2 for nanoprobes with IR-783; BD 3 laser LSR2 for nanoprobes with Fluorescein or Cy3).
Figure S4: Effect of PEGylation on non-specific binding to cells by single channel FACS. […] Arrows indicates the cutoff for unstained cells.

Substance | Quant. Yield [1] | Volume FPLC, globular protein equivalent molecular volume [2] [kDa] | Volume FPLC Dia. (diameter) [2] [nm] | Cell NSB: percent of HT-29 cells above the cutoff for unstained cells [3]
(DOTA)Lys(PEG 5 kDa)-Cys(IR-783) [PN(783)4.3, PEG-like Nanoprobe: 5 kDa PEG, IR-783 fluorochrome, DOTA peptide] | 0.16±0.03 | 35.2 | 4.3 | 20±1%
(DOTA)Lys(PEG 30 kDa)-Cys(Fl) [PN(497)10.0, PEG-like Nanoprobe: 30 kDa PEG, fluorescein, DOTA peptide] | 0.60±0.08 | 435 | – | 0.1% ±0.1%
(DOTA)Lys(PEG 30 kDa)-Cys(IR-783) [PN(783)10.0, PEG-like Nanoprobe: 30 kDa PEG, IR-783 fluorochrome, DOTA peptide] | 0.16±0.04 | 435.4 | 10.0 | 18±1%
